Source: publication doi:10.1101/2023.03.09.531510

Key:
Assay in all cases: protein-fragment complementation
Chc1 = Chc1 (UniProt P22137)
Cdc10 = Cdc10 (UniProt P25342)
Hek2 = Hek2 (UniProt P38199)
Syp1 = Syp1 (UniProt P25623)
Sla1 = Sla1 (UniProt P32790)
Aim21 = Aim21 (UniProt P40563)
Hsp104 = Hsp104 (UniProt P31539)
Mid2 = Mid2 (UniProt P36027)
Tdh3 = Tdh3 (UniProt P00359)
Myo5 = Myo5 (UniProt Q04439)
Bzz1 = Bzz1 (UniProt P38822)
Pab1 = Pab1 (UniProt P04147)
Bmh1 = Bmh1 (UniProt P29311)
Sbp1 = Sbp1 (UniProt P10080)
Lsb3 = Lsb3 (UniProt P43603)
Bbc1 = Bbc1 (UniProt P47068)
Ssb2 = Ssb2 (UniProt P40150)
Rvs167 = Rvs167 (UniProt P39743)
Ssa1 = Ssa1 (UniProt P10591)
Pkh2 = biological target: Pkh2
Arc40 = Arc40 (UniProt P38328)
Arc15 = Arc15 (UniProt P40518)
Ssb1 = Ssb1 (UniProt P11484)
Sfk1 = Sfk1 (UniProt P35735)
Pfk1 = Pfk1 (UniProt P16861)
Tif4631 = Tif4631 (UniProt P39935)
Cmd1 = Cmd1 (UniProt P06787)
Smi1 = Smi1 (UniProt P32566)
Ygl242c = Ygl242c (UniProt P53066)
Yor1 = Yor1 (UniProt P53049)
Pan1 = Pan1 (UniProt P32521)
Cdc3 = Cdc3 (UniProt P32457)
Ste20 = Ste20 (UniProt Q03497)
Arc18 = Arc18 (UniProt Q05933)
Las17 = Las17 (UniProt Q12446)
Osh2 = Osh2 (UniProt Q12451)
Vrp1 = Vrp1 (UniProt P37370)
Sac6 = Sac6 (UniProt P32599)
Srv2 = Srv2 (UniProt P17555)
Ysc84 = Ysc84 (UniProt P32793)
Nap1 = Nap1 (UniProt P25293)
Arc19 = Arc19 (UniProt P33204)
Ssz1 = Ssz1 (UniProt P38788)
Sla2 = Sla2 (UniProt P33338)
Abp1 = Abp1 (UniProt P15891)

Chain of UniProt P32566 (P32566 whole entry): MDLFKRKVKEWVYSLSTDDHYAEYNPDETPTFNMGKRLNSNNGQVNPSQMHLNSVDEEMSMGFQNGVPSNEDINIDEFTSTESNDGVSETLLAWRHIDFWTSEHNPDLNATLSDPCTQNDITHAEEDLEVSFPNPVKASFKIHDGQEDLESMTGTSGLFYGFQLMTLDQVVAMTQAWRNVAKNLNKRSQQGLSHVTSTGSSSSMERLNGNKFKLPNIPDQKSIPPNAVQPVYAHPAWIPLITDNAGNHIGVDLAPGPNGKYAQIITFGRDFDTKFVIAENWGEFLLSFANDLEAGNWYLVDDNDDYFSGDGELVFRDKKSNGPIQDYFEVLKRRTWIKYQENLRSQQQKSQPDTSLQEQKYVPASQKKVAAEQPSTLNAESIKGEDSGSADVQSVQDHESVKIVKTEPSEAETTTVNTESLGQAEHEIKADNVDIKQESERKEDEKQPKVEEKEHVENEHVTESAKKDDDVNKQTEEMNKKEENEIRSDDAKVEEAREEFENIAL
Chain of UniProt P39935 (P39935 whole entry): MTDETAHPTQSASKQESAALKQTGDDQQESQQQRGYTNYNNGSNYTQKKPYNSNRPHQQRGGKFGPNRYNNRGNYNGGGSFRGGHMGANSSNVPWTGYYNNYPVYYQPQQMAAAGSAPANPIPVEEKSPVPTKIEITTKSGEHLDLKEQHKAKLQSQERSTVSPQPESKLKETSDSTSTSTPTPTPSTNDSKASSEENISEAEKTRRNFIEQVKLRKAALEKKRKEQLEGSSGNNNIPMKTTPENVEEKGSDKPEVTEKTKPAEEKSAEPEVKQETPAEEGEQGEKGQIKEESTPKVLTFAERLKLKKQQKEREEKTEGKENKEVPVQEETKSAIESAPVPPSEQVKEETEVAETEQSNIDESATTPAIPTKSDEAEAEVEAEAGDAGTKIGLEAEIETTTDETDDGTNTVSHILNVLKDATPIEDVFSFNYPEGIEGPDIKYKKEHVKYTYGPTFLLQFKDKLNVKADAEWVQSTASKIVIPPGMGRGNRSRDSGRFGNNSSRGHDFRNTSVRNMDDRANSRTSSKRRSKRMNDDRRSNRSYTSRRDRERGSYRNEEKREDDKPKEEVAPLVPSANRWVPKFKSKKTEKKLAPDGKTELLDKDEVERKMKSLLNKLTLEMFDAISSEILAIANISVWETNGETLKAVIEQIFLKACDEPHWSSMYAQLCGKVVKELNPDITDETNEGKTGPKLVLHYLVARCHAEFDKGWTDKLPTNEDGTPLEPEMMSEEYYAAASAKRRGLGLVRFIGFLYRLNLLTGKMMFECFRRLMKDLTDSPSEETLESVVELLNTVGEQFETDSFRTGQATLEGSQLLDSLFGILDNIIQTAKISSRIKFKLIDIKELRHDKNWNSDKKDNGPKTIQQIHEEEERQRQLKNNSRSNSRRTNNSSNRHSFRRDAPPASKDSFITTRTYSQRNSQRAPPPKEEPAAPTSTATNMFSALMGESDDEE
Chain of UniProt P38199 (P38199 whole entry): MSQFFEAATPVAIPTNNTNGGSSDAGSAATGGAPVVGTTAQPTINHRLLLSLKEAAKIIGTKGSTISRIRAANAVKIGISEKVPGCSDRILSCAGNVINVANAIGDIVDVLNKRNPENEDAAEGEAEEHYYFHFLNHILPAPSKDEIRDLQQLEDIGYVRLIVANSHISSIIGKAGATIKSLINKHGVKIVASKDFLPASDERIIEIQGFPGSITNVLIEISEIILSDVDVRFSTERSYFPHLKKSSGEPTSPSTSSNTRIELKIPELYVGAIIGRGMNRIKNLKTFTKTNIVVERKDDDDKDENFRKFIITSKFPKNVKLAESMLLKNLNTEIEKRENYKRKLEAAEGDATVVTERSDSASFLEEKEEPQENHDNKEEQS
Chain of UniProt P25342 (P25342 whole entry): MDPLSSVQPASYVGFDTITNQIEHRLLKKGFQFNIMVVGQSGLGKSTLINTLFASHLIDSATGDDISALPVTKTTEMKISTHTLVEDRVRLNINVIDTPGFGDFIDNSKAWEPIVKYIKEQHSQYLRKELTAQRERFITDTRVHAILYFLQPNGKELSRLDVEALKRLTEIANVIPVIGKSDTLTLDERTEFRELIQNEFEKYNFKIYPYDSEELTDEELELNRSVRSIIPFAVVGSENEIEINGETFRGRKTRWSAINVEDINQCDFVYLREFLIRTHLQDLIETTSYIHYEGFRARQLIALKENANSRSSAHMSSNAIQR
Chain of UniProt P25623 (P25623 whole entry): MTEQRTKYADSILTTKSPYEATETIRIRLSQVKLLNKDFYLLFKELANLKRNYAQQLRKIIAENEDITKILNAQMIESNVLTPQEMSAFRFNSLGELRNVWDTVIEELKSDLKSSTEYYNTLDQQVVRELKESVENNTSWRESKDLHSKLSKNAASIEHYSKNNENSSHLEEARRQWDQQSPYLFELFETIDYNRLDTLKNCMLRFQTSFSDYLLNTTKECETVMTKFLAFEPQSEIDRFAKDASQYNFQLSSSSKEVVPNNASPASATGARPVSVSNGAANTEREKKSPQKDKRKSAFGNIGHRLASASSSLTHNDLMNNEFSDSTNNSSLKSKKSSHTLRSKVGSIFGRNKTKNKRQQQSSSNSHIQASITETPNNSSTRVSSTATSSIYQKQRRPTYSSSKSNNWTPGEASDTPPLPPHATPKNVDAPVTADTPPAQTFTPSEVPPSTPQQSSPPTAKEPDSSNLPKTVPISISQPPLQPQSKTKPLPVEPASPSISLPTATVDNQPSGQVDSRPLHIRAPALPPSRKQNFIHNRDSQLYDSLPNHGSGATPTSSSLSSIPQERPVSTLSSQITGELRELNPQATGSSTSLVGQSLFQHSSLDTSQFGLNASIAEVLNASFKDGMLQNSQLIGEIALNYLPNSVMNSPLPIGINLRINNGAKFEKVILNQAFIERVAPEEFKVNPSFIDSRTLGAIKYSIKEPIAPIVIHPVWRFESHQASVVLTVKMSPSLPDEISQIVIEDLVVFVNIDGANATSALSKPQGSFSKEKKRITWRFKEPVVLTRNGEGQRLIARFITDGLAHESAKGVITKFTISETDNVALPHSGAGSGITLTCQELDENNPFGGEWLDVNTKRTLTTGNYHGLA
Chain of UniProt P43603 (P43603 whole entry): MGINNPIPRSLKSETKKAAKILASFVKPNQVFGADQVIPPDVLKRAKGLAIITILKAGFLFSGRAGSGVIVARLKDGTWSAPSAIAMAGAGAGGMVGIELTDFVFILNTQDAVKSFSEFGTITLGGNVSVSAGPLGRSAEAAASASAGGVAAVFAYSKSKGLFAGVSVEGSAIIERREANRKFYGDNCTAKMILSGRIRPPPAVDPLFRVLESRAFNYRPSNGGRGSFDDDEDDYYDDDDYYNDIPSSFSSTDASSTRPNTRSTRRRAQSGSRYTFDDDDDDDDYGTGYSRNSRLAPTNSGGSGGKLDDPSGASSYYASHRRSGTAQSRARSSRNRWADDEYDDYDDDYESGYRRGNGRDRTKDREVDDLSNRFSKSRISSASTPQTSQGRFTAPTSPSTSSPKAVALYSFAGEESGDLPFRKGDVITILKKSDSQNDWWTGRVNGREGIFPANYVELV
Chain of UniProt P36027 (P36027 whole entry): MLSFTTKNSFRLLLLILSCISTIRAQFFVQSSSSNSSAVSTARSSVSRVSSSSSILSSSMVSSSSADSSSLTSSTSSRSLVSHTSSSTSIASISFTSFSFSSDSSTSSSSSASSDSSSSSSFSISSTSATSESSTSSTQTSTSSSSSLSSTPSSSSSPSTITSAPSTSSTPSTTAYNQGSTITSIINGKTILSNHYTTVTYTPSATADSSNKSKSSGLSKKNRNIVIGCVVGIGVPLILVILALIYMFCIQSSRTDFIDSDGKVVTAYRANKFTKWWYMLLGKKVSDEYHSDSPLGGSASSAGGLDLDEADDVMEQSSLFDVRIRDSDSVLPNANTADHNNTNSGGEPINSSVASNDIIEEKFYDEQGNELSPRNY
Chain of UniProt P39743 (P39743 whole entry): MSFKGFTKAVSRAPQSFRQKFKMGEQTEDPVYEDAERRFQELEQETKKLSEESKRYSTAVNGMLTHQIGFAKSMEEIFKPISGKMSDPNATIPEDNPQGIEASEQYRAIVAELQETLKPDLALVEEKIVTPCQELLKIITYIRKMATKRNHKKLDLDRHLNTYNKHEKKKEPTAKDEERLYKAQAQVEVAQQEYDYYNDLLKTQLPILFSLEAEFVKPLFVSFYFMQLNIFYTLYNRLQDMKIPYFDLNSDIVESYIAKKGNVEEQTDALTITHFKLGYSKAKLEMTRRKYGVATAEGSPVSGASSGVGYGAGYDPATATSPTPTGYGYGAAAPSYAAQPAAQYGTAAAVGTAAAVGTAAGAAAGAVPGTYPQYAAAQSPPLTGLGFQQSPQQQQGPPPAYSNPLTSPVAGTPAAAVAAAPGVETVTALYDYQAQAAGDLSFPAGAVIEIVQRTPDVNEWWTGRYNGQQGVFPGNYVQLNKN
Chain of UniProt Q05933 (Q05933 whole entry): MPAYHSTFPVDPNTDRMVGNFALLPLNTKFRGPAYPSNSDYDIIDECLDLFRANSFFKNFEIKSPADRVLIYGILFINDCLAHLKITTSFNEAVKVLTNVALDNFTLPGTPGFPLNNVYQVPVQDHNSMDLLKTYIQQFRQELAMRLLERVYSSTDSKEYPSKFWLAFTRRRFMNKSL
Chain of UniProt P38328 (P38328 whole entry): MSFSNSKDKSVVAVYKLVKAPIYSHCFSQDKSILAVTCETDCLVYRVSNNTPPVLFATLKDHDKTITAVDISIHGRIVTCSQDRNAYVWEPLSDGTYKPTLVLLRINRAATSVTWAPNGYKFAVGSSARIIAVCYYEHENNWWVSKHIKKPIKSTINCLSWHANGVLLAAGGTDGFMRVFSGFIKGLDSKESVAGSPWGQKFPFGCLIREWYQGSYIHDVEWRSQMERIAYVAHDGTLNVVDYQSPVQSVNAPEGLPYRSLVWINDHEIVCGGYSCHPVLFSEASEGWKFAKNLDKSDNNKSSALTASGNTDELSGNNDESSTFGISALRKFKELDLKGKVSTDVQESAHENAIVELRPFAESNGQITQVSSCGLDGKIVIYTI

Myo5 with SH3 controlMyo5 (from UniProt Q04439)
interaction score (Chc1): 0.578
interaction score (Cdc10): 0.374
interaction score (Hek2): 0.36
interaction score (Syp1): 0.527
interaction score (Sla1): 0.539
interaction score (Aim21): 0.756
interaction score (Hsp104): 0.76
interaction score (Mid2): 0.857
interaction score (Tdh3): 0.965
interaction score (Myo5): 0.898
interaction score (Bzz1): 0.823
interaction score (Pab1): 0.785
interaction score (Bmh1): 0.82
interaction score (Sbp1): 0.827
interaction score (Lsb3): 0.624
interaction score (Bbc1): 0.758
interaction score (Ssb2): 0.93
interaction score (Rvs167): 0.5
interaction score (Ssa1): 0.902
interaction score (Pkh2): 0.102
interaction score (Arc40): 0.952
interaction score (Arc15): 0.901
interaction score (Ssb1): 0.929
interaction score (Sfk1): 0.716
interaction score (Pfk1): 0.855
interaction score (Tif4631): 0.662
interaction score (Cmd1): 0.582
interaction score (Smi1): 0.532
interaction score (Ygl242c): 0.929
interaction score (Yor1): 0.432
interaction score (Pan1): 0.926
interaction score (Cdc3): 0.433
interaction score (Ste20): 0.421
interaction score (Arc18): 0.87
interaction score (Las17): 0.877
interaction score (Osh2): 0.745
interaction score (Vrp1): 0.912
interaction score (Sac6): 0.825
interaction score (Srv2): 0.628
interaction score (Ysc84): 0.463
interaction score (Nap1): 0.463
interaction score (Arc19): 0.766
interaction score (Ssz1): 0.83
interaction score (Sla2): 0.644

Myo5 with SH3 swapMyo3 (from UniProt Q04439)
interaction score (Chc1): 0.594
interaction score (Cdc10): 0.33
interaction score (Hek2): 0.387
interaction score (Syp1): 0.557
interaction score (Sla1): 0.535
interaction score (Abp1): 0.908
interaction score (Aim21): 0.753
interaction score (Hsp104): 0.767
interaction score (Mid2): 0.858
interaction score (Tdh3): 0.972
interaction score (Myo5): 0.903
interaction score (Bzz1): 0.818
interaction score (Pab1): 0.795
interaction score (Bmh1): 0.825
interaction score (Sbp1): 0.824
interaction score (Lsb3): 0.628
interaction score (Bbc1): 0.755
interaction score (Ssb2): 0.932
interaction score (Rvs167): 0.519
interaction score (Pkh2): 0.168
interaction score (Arc40): 0.967
interaction score (Arc15): 0.9
interaction score (Ssb1): 0.934
interaction score (Sfk1): 0.714
interaction score (Pfk1): 0.862
interaction score (Tif4631): 0.665
interaction score (Cmd1): 0.196
interaction score (Smi1): 0.539
interaction score (Ygl242c): 0.935
interaction score (Yor1): 0.492
interaction score (Pan1): 0.925
interaction score (Cdc3): 0.472
interaction score (Ste20): 0.417
interaction score (Arc18): 0.874
interaction score (Las17): 0.877
interaction score (Osh2): 0.76
interaction score (Vrp1): 0.917
interaction score (Sac6): 0.824
interaction score (Srv2): 0.637
interaction score (Ysc84): 0.459
interaction score (Nap1): 0.479
interaction score (Arc19): 0.762
interaction score (Ssz1): 0.838
interaction score (Sla2): 0.632

Myo5 with SH3 extantMyo5 (from UniProt Q04439)
interaction score (Chc1): 0.568
interaction score (Cdc10): 0.366
interaction score (Hek2): 0.321
interaction score (Syp1): 0.513
interaction score (Sla1): 0.523
interaction score (Aim21): 0.762
interaction score (Hsp104): 0.758
interaction score (Mid2): 0.864
interaction score (Tdh3): 0.97
interaction score (Myo5): 0.901
interaction score (Bzz1): 0.814
interaction score (Pab1): 0.8
interaction score (Bmh1): 0.815
interaction score (Sbp1): 0.824
interaction score (Lsb3): 0.62
interaction score (Bbc1): 0.762
interaction score (Ssb2): 0.932
interaction score (Rvs167): 0.503
interaction score (Ssa1): 0.914
interaction score (Pkh2): 0.11
interaction score (Arc40): 0.969
interaction score (Arc15): 0.9
interaction score (Ssb1): 0.942
interaction score (Sfk1): 0.736
interaction score (Pfk1): 0.869
interaction score (Tif4631): 0.665
interaction score (Cmd1): 0.26
interaction score (Smi1): 0.518
interaction score (Ygl242c): 0.938
interaction score (Yor1): 0.454
interaction score (Pan1): 0.926
interaction score (Cdc3): 0.422
interaction score (Ste20): 0.401
interaction score (Arc18): 0.868
interaction score (Las17): 0.876
interaction score (Osh2): 0.756
interaction score (Vrp1): 0.917
interaction score (Sac6): 0.823
interaction score (Srv2): 0.632
interaction score (Ysc84): 0.463
interaction score (Nap1): 0.48
interaction score (Arc19): 0.768
interaction score (Ssz1): 0.835
interaction score (Sla2): 0.621
